Molecular target: the molecule itself
Assay: native gel or EMSA; TS-actin and associated proteins eluted from StrepTactin resin with 2 mM biotin, run at once on 4-16% NativePAGE, western blot; also samples crosslinked with DSP before lysis

B1: Gl14-3-3-HA (endogenously C-terminally 3XHA tagged Gl14-3-3) (natural protein, Giardia lamblia, UniProt E2RU97 1-248, looked up)
chain: MAEAFTREDYVFMAQLNENAERYDEMVETMRKISGMEGELSDKERNLLSVAYKNVIGPRRAAWRIVSSIEAKEKGRQKPNAKRIEQIRVYRQKIEKELSDICNDILKLLQEQFVPRSTNADAKVFYYKMQGDYYRYLAEYSSGEDKEKIAGSALNAYNSAFEISQQLPPTHPIRLGLALNFSVFYYEILASPDRACELARKAFDAAITDLDKLTEESYKDSTLIMQLLRDNLNLWVTDSAGDDNAEEK
notes: the single 14-3-3 homolog of Giardia (Gl14-3-3), GL50803_6430; source: Giardia trophozoites, endogenously tagged, in lysate; not shown: 3XHA, C-terminal, kept
stoichiometry N: 2

— doi:10.1101/142505, “14-3-3 Negatively Regulates Actin Filament Formation in the Deep Branching Eukaryote Giardia lamblia” (bioRxiv, 2017)
